From IntAct's records for PubMed 29263825

B1: Cohesin subunit SA-2 (Homo sapiens), Q8N3U4 (parent)
chain: MIAAPEIPTDFNLLQESETHFSSDTDFEDIEGKNQKQGKGKTCKKGKKGPAEKGKGGNGGGKPPSGPNRMNGHHQQNGVENMMLFEVVKMGKSAMQSVVDDWIESYKHDRDIALLDLINFFIQCSGCKGVVTAEMFRHMQNSEIIRKMTEEFDEDSGDYPLTMAGPQWKKFKSSFCEFIGVLVRQCQYSIIYDEYMMDTVISLLTGLSDSQVRAFRHTSTLAAMKLMTALVNVALNLSINMDNTQRQYEAERNKMIGKRANERLELLLQKRKELQENQDEIENMMNAIFKGVFVHRYRDAIAEIRAICIEEIGIWMKMYSDAFLNDSYLKYVGWTMHDKQGEVRLKCLTALQGLYYNKELNSKLELFTSRFKDRIVSMTLDKEYDVAVQAIKLLTLVLQSSEEVLTAEDCENVYHLVYSAHRPVAVAAGEFLYKKLFSRRDPEEDGMMKRRGRQGPNANLVKTLVFFFLESELHEHAAYLVDSMWDCATELLKDWECMNSLLLEEPLSGEEALTDRQESALIEIMLCTIRQAAECHPPVGRGTGKRVLTAKEKKTQLDDRTKITELFAVALPQLLAKYSVDAEKVTNLLQLPQYFDLEIYTTGRLEKHLDALLRQIRNIVEKHTDTDVLEACSKTYHALCNEEFTIFNRVDISRSQLIDELADKFNRLLEDFLQEGEEPDEDDAYQVLSTLKRITAFHNAHDLSKWDLFACNYKLLKTGIENGDMPEQIVIHALQCTHYVILWQLAKITESSSTKEDLLRLKKQMRVFCQICQHYLTNVNTTVKEQAFTILCDILMIFSHQIMSGGRDMLEPLVYTPDSSLQSELLSFILDHVFIEQDDDNNSADGQQEDEASKIEALHKRRNLLAAFCKLIVYTVVEMNTAADIFKQYMKYYNDYGDIIKETMSKTRQIDKIQCAKTLILSLQQLFNEMIQENGYNFDRSSSTFSGIKELARRFALTFGLDQLKTREAIAMLHKDGIEFAFKEPNPQGESHPPLNLAFLDILSEFSSKLLRQDKRTVYVYLEKFMTFQMSLRREDVWLPLMSYRNSLLAGGDDDTMSVISGISSRGSTVRSKKSKPSTGKRKVVEGMQLSLTEESSSSDSMWLSREQTLHTPVMMQTPQLTSTIMREPKRLRPEDSFMSVYPMQTEHHQTPLDYNRRGTSLMEDDEEPIVEDVMMSSEGRIEDLNEGMDFDTMDIDLPPSKNRRERTELKPDFFDPASIMDESVLGVSMF
B2: Cohesin subunit SA-2 (Homo sapiens), Q8N3U4 (parent)
chain: B1 chain
partner: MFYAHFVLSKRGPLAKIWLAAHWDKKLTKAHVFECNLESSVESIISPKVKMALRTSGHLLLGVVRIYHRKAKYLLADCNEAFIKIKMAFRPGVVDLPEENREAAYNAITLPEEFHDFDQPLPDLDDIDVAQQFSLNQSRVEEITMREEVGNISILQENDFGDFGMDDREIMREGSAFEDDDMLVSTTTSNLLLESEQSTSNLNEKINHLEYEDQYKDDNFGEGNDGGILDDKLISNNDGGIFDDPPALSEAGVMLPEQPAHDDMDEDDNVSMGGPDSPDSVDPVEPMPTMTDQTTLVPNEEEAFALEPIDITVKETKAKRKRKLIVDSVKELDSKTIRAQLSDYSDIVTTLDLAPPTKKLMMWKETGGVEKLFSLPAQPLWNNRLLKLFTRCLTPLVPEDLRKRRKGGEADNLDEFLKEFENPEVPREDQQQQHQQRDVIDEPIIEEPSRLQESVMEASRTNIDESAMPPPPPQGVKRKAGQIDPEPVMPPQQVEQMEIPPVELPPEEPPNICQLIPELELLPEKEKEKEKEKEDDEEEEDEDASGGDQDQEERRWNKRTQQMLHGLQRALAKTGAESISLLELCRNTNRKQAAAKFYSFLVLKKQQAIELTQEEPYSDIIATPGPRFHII
B3: Cohesin subunit SA-2 (Homo sapiens), Q8N3U4 (parent)
chain: B1 chain
partner: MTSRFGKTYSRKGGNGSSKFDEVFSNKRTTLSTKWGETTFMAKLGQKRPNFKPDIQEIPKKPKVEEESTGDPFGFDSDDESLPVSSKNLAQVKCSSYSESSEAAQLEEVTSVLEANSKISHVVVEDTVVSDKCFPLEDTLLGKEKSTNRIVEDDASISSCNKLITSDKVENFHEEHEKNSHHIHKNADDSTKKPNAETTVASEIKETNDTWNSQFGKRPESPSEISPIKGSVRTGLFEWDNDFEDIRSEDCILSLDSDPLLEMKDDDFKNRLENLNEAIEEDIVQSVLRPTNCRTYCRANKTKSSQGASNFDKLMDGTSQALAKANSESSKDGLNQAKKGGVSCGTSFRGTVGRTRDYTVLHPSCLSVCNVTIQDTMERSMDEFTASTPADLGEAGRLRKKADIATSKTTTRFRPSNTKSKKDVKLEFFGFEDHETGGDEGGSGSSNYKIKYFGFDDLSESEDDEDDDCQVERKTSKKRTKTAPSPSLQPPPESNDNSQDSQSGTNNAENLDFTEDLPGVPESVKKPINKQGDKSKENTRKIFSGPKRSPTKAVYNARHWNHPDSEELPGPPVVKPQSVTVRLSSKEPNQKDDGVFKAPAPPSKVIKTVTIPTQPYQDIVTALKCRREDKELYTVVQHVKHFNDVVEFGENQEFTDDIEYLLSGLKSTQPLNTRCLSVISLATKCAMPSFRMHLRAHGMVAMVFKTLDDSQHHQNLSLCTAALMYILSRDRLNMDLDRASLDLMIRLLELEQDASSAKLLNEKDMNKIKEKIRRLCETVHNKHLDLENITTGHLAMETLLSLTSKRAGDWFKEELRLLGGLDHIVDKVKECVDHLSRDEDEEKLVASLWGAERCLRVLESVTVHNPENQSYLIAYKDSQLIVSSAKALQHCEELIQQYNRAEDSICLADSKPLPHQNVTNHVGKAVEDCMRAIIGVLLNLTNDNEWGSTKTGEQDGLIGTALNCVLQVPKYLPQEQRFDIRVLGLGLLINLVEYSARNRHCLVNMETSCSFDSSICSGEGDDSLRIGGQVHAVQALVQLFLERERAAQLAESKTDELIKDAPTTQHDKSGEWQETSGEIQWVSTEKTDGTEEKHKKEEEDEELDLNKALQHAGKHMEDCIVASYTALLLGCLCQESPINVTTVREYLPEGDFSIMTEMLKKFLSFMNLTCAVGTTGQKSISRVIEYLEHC

Variants of: B1
Details: with sgo1_human SGO1, Q5FBB7
Chain of sgo1_human SGO1, Q5FBB7 (Q5FBB7 whole entry): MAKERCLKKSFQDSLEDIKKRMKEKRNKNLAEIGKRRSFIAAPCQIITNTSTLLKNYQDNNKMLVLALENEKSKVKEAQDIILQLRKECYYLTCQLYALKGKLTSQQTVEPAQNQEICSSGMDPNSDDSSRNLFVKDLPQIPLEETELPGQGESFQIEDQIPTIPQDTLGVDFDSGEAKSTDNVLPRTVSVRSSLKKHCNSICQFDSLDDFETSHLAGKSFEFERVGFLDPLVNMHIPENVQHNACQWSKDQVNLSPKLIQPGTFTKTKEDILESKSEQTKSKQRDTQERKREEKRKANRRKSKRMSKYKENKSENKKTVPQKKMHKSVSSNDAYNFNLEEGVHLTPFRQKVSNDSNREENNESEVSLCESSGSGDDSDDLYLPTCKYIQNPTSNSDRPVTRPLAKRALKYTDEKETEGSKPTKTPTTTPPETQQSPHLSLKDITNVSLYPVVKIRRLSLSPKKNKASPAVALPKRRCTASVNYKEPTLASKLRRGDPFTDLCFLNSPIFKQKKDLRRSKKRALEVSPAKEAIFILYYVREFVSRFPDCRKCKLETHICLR

| effect of a mutation on the interaction | Variant |
| --- | --- |
| disrupting interaction | K330E |
| decreasing interaction | S327N |

Variants of: B2
Details: with rad21_human RAD21, O60216

| effect of a mutation on the interaction | Variant |
| --- | --- |
| with no effect | S327N |

Variants of: B3
Details: with wapl_human WAPL

| effect of a mutation on the interaction | Variant |
| --- | --- |
| decreasing interaction | K330E |
| with no effect | S327N |
